Laboratory results reported in article PMC9706017, “Crystal Structure and Molecular Mechanism of Phosphotransbutyrylase from Clostridium acetobutylicum” (Journal of Microbiology and Biotechnology, 2021).

Molecular target: the molecule itself
Assay: crystal structure; apo CaPTB with sulfate ions; crystals from 20% PEG3350, 0.2 M lithium sulfate, 0.1 M HEPES pH 7.5, 20°C; space group P21; 2.9 Å; eight molecules in the asymmetric unit

B1: phosphotransbutyrylase from Clostridium acetobutylicum (enzyme, UniProt P58255 1-301, looked up)
chain: MIKSFNEIIMKVKSKEMKKVAVAVAQDEPVLEAVRDAKKNGIADAILVGDHDEIVSIALKIGMDVNDFEIVNEPNVKKAALKAVELVSTGKADMVMKGLVNTATFLRSVLNKEVGLRTGKTMSHVAVFETEKFDRLLFLTDVAFNTYPELKEKIDIVNNSVKVAHAIGIENPKVAPICAVEVINPKMPSTLDAAMLSKMSDRGQIKGCVVDGPLALDIALSEEAAHHKGVTGEVAGKADIFLMPNIETGNVMYKTLTYTTDSKNGGILVGTSAPVVLTSRADSHETKMNSIALAALVAGNK
notes: phosphotransbutyrylase (phosphate butyryltransferase, PTB) of Clostridium acetobutylicum; Octamer (four dimers) in the crystal and by size-exclusion chromatography; Removal of the tag is not mentioned; also called CaPTB; PTB; source: E. coli BL21(DE3)-T1R, purified (Ni-NTA agarose, Superdex200 size exclusion)
  stoichiometry N: 8
